Laboratory results taken from patent US20080247944A1 (published 2008).

Tests used:
[1] = molecular target: T1, IRTA-2-Fc antigen (fusion protein composed of the extracellular domain of the IRTA-2 linked to the Fc portion … (human, UniProt Q96RD9 16-851)); experiment: Biacore SPR, antibody captured by anti-human IgG on CM5 chip, IRTA-2-Fc flowed at 50-400 nM, 1:1 Langmuir fit
T1 construct: not shown: Fc portion of human IgG1
T1 chain: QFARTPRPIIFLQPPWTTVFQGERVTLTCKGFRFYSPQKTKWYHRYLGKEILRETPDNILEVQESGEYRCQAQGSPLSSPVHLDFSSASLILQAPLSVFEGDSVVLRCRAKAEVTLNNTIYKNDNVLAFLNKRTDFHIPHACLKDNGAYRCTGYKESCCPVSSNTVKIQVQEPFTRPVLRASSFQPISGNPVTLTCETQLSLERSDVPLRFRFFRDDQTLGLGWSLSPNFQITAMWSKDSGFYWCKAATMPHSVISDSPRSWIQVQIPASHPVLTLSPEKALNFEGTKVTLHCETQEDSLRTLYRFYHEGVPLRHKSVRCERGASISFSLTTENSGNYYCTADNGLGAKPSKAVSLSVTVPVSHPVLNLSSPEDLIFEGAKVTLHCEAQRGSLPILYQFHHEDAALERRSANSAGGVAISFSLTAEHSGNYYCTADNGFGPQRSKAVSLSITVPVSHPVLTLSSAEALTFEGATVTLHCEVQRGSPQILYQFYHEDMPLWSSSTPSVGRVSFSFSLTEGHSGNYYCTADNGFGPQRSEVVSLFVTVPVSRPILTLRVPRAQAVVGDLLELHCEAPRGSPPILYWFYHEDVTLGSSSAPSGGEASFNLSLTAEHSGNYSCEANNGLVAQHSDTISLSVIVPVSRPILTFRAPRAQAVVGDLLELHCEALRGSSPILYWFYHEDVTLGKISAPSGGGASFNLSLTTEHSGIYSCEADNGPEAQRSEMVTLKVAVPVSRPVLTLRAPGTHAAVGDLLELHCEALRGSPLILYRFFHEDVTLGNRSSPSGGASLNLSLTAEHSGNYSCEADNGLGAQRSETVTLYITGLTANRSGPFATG
Experimental: Anti-IRTA-2 antibodies were characterized for affinities and binding kinetics by Biacore analysis (Biacore AB, Uppsala, Sweden). Purified anti-IRTA-2 monoclonal antibodies were captured by anti-human IgG antibody covalently linked to a CM5 chip (carboxy methyl dextran coated chip) via primary amines, using standard amine coupling chemistry and kit provided by Biacore. Binding was measured by flowing the IRTA-2-Fc antigen (a fusion protein composed of the extracellular domain of the IRTA-2 linked to the Fc portion of human IgG1) in HBS EP buffer (provided by Biacore AB) at concentrations of 400, 300, 200, 100, and 50 nM at a flow rate of 12 μl/min. The antigen-antibody association kinetics was followed for either 20 minutes (for 8A1) or 5 minutes (for 9D12) and the dissociation kinetics was followed for ether 10 minutes (for 8A1) or 5 minutes (for 9D12). The association and dissociation curves were fit to a 1:1 Langmuir binding model using BIAevaluation software (Biacore AB).

[2] = molecular target: T2, IRTA-4, full length transmembrane form with N-terminal myc tag, on transfected CHO cells (human, UniProt Q96LA5 20-508); experiment: flow cytometry on CHO cells transfected with myc-tagged IRTA-4; PE-labeled anti-human IgG
T2 construct: also called CHO cells transfected with IRTA-4; human IRTA-4; not shown: myc tag at the N-terminus
T2 sequence: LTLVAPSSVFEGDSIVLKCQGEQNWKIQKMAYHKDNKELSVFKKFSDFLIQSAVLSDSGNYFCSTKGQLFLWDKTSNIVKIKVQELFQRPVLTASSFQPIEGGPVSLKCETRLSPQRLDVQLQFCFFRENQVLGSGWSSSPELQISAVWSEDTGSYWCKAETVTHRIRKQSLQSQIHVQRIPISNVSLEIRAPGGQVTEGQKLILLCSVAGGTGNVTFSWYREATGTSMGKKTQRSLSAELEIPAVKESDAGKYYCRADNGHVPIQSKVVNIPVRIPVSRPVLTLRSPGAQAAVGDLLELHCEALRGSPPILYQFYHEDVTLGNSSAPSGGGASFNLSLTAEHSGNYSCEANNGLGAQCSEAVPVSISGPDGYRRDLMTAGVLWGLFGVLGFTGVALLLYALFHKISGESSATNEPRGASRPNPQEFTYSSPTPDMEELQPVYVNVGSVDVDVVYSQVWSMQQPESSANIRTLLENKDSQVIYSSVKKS
From the text: (§1) Chinese hamster ovary (CHO) cell lines that express either the IRTA-2, IRTA-3 or IRTA-4 protein at the cell surface were developed and used to determine the specificity of the IRTA-2 monoclonal antibodies by flow cytometry. CHO cells were transfected with expression plasmids containing full length cDNA encoding transmembrane forms of IRTA-2, IRTA-3, or IRTA-4. In addition, the transfected proteins contained a myc tag at the N-terminus for detection by anti-myc antibody. Binding of the two anti-IRTA-2 monoclonal antibodies was assessed by incubating the transfected cells with each of the IRTA-2 Abs at a concentration of 10 μg/ml. The cells were washed and binding was detected with a phycoerythrin-labeled anti-human IgG Ab. A murine anti-myc Ab followed by labeled anti-murine IgG was used as the positive control. Secondary antibody alone was used as a negative control. The results are depicted in FIGS. 7A-C. The IRTA-2 monoclonal antibodies 9D12 and 8A1 bound to the CHO line transfected with IRTA-2 but not to CHO lines expressing IRTA-3 or -4, as measured by the mean fluorescent intensity (MFI) of staining.

[3] = molecular target: T3, IRTA-3, full length transmembrane form with N-terminal myc tag, on transfected CHO cells (human, UniProt Q96P31 18-734); experiment: flow cytometry on CHO cells transfected with myc-tagged IRTA-3; PE-labeled anti-human IgG
T3 construct: also called CHO cells transfected with IRTA-3; human IRTA-3; not shown: myc tag at the N-terminus
T3 sequence: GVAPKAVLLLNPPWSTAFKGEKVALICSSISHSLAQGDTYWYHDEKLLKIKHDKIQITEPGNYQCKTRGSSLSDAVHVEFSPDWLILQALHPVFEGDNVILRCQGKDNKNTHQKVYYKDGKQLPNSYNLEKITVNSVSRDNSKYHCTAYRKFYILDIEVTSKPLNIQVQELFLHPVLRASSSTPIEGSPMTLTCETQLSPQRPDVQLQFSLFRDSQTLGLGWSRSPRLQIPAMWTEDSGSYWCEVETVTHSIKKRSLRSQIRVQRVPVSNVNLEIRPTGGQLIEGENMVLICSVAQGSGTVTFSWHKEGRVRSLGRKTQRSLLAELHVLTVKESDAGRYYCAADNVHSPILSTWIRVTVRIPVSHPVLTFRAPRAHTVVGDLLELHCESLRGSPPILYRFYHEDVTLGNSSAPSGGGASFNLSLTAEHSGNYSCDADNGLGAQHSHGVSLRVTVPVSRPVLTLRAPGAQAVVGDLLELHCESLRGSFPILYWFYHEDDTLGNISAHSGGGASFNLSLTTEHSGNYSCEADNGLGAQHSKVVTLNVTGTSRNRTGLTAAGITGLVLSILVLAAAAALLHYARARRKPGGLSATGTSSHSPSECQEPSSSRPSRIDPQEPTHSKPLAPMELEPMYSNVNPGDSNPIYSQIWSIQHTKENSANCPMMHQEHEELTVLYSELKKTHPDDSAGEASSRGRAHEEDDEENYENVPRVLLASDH
From the text: as §1

[4] = molecular target: T4, IRTA-2, full length transmembrane form with N-terminal myc tag, on transfected CHO cells (human, UniProt Q96RD9 16-977); experiment: flow cytometry on CHO cells transfected with myc-tagged IRTA-2; antibody at 10 µg/ml; PE-labeled anti-human IgG
T4 construct: also called CHO cells transfected with IRTA-2; human IRTA-2; not shown: myc tag at the N-terminus
T4 chain: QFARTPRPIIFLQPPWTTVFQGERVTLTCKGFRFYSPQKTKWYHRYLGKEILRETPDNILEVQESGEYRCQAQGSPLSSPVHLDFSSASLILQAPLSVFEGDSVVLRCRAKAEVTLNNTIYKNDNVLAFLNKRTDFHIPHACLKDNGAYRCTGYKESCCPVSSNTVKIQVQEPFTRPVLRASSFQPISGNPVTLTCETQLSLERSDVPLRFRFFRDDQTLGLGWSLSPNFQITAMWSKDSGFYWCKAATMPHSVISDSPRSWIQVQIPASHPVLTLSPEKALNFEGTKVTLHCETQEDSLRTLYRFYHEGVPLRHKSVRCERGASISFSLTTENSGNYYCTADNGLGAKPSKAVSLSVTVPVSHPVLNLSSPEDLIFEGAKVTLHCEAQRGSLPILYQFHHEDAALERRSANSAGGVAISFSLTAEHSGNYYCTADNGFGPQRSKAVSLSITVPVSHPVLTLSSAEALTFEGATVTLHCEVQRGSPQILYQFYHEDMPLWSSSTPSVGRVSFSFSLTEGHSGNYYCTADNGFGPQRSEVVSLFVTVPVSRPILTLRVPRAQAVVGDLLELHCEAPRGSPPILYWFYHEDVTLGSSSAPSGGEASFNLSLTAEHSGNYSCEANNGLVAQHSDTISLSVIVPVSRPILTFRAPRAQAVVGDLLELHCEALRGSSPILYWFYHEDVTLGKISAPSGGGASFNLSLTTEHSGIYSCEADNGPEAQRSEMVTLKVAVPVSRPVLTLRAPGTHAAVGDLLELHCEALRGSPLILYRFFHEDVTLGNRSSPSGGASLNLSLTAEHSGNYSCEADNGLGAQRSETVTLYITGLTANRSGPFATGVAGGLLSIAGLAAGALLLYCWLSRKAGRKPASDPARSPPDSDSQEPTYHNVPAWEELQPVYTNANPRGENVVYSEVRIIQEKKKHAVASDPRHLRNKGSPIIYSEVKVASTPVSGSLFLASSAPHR
From the text: as §1

B1: 8A1 human monoclonal antibody (antibody, V domains shown)
VH: QMQLVQSGAEVKKPGASVKVSCKASGYTFISYDINWVRQATGQGLEWMGWMHPNSGNTGYAQKFQGRVTMTRNTSISTAYMELSSLRSEDTAVYYCARGRGITMVRGGIIYYGMDVWGQGTTVTVSS
VL: AIQLTQSPSSLSASVGDRVTITCRASQGISSALAWYQQKPGKAPKLLIYDASSLESGVPSRFSGSGSGTDFTLTISSLQPEDFATYYCQQFNSYPHTFGQGTKLEIK
notes: Purified from a hybridoma of a KM Mouse; Human IgG (captured and detected with anti-human IgG) with a kappa light chain (VK L18); also called anti-IRTA-2 HuMAb 8A1
Kd [1]: 20 nM
koff [1]: 0.00011 s⁻¹
kon [1]: 5800 M⁻¹ s⁻¹

B2: 9D12 human monoclonal antibody (antibody, V domains shown)
VH: EVQLLESGGGLVQPGGSLRLSCAASGFTFSSSAMSWVRQAPGKGLEWVSSISGSGDTTYYADSVKGRFTISRDNSKNTLYLQMNSLRVEDAALYYCAANWGAAFDIWGQGTMVTVSS
VL: EIVLTQSPATLSLSPGERATLSCRASQSVSSYLAWYQQKPGQAPRLLIYDASNRATGIPARFSGSGSGTDFTLTISSLEPEDFAVYYCQQRSNWPRWTFGQGTKVEIK
notes: Purified from a hybridoma of a HuMAb Mouse; Human IgG (captured and detected with anti-human IgG) with a kappa light chain (VK L6); also called anti-IRTA-2 HuMAb 9D12
binding result [2]: no binding (tested: 10 µg/ml)
Kd [1]: 2.1 nM
koff [1]: 6.9e-05 s⁻¹
kon [1]: 34000 M⁻¹ s⁻¹
binding result [3]: no binding (tested: 10 µg/ml)
binding result [4]: binds
